This note sets out measurements from paper doi:10.64898/2025.12.12.693935, “Tetraspanin CD82 reduces the formation of CADM1 oligomers” (bioRxiv, 2025).

As usually defined, the stoichiometry N is the number of molecules, sites or subunits per partner or assembly.

Series [1] deals with the molecule itself. Put plainly: SEC; F-SEC on tryptophan fluorescence, Superose 6 increase 10/300, purified protein injected at 0.15 to 80 µM; 150 mM NaCl, 25 mM HEPES pH 7.5, 0.025% DDM.
Series [2] deals with the molecule itself. Put plainly: SEC; F-SEC on the eGFP signal, Superdex 200 increase 10/300 GL, strep-tactin-purified samples of individually expressed or co-expressed proteins; 150 mM NaCl, 25 mM HEPES pH 7.5, 0.025% DDM. For orientation: In gel filtration, larger molecules generally elute earlier.
Series [3] deals with the molecule itself. In words: SEC-MALS; SEC-MALLS, Superdex 200 increase 10/300 GL, 200 mM NaCl, 25 mM HEPES 7.5, 0.4 mL/min; CADM1(ECD)-His6 at 160, 80, 40 and 20 µM; monomer to dimer.

B1: CADM1-StrepII3 (natural protein, human, UniProt Q9BY67 45-442, looked up)
chain: QNLFTKDVTVIEGEVATISCQVNKSDDSVIQLLNPNRQTIYFRDFRPLKDSRFQLLNFSSSELKVSLTNVSISDEGRYFCQLYTDPPQESYTTITVLVPPRNLMIDIQKDTAVEGEEIEVNCTAMASKPATTIRWFKGNTELKGKSEVEEWSDMYTVTSQLMLKVHKEDDGVPVICQVEHPAVTGNLQTQRYLEVQYKPQVHIQMTYPLQGLTREGDALELTCEAIGKPQPVMVTWVRVDDEMPQHAVLSGPNLFINNLNKTDNGTYRCEASNIVGKAHSDYMLYVYDPPTTIPPPTTTTTTTTTTTTTILTIITDSRAGEEGSIRAVDHAVIGGVVAVVVFAMLCLLIILGRYFARHKGTYFTHEAKGADDAADADTAIINAEGGQNNSEEKKEYFI
notes: CADM1 excluding the signal peptide, human, UniProtKB Q9BY67.2; called full-length in the results; expressed behind the vector's N-terminal signal peptide; also called full-length CADM1-StrepII3; source: HEK293-E+ cells, transiently transfected, solubilized in DDM, purified (strep-tactin, SEC); not shown: StrepII3, C-terminal, kept
In the case of B1, in series [1], the binding result is “binds”.

B2: CADM1-eGFP-StrepII3 (natural protein, human, UniProt Q9BY67 45-442, looked up)
chain: QNLFTKDVTVIEGEVATISCQVNKSDDSVIQLLNPNRQTIYFRDFRPLKDSRFQLLNFSSSELKVSLTNVSISDEGRYFCQLYTDPPQESYTTITVLVPPRNLMIDIQKDTAVEGEEIEVNCTAMASKPATTIRWFKGNTELKGKSEVEEWSDMYTVTSQLMLKVHKEDDGVPVICQVEHPAVTGNLQTQRYLEVQYKPQVHIQMTYPLQGLTREGDALELTCEAIGKPQPVMVTWVRVDDEMPQHAVLSGPNLFINNLNKTDNGTYRCEASNIVGKAHSDYMLYVYDPPTTIPPPTTTTTTTTTTTTTILTIITDSRAGEEGSIRAVDHAVIGGVVAVVVFAMLCLLIILGRYFARHKGTYFTHEAKGADDAADADTAIINAEGGQNNSEEKKEYFI
notes: CADM1 excluding the signal peptide, human, UniProtKB Q9BY67.2; expressed behind the vector's N-terminal signal peptide; source: HEK293-E+ cells, transiently transfected, solubilized in DDM, purified (strep-tactin); not shown: eGFP, C-terminal, kept; StrepII3, C-terminal, kept
Take B2: the binding result in series [2] is on record as “binds”.

B3: CADM1(ECD)-His6 (domain or fragment, human, UniProt Q9BY67 45-374, looked up)
chain: QNLFTKDVTVIEGEVATISCQVNKSDDSVIQLLNPNRQTIYFRDFRPLKDSRFQLLNFSSSELKVSLTNVSISDEGRYFCQLYTDPPQESYTTITVLVPPRNLMIDIQKDTAVEGEEIEVNCTAMASKPATTIRWFKGNTELKGKSEVEEWSDMYTVTSQLMLKVHKEDDGVPVICQVEHPAVTGNLQTQRYLEVQYKPQVHIQMTYPLQGLTREGDALELTCEAIGKPQPVMVTWVRVDDEMPQHAVLSGPNLFINNLNKTDNGTYRCEASNIVGKAHSDYMLYVYDPPTTIPPPTTTTTTTTTTTTTILTIITDSRAGEEGSIRAVDH
notes: ectodomain of CADM1, human, UniProtKB Q9BY67.2, without the natural signal peptide; also called His-tagged CADM1 ectodomain; soluble CADM1(ECD)-His6; source: HEK293-E+ cells, secreted into the supernatant, purified (Ni Sepharose excel, SEC); not shown: His6, C-terminal, kept
For the protein B3, the “stoichiometry N” value in series [3] is 2.
